Data published in patent US20170052184A1.

Experiments:
[1] = biological target: HCV Core Peptide # 48 (aa 95-109) (hepatitis C virus); experiment: peptide EIA summary (Table 11), peptide 48, aa 95-109
[2] = biological target: HCV Core Peptide # 50 (aa 99-113) (hepatitis C virus); experiment: peptide EIA summary (Table 11), peptide 50, aa 99-113
[3] = biological target: HCV Core Peptide # 48 (aa 95-109) (hepatitis C virus); experiment: EIA on coated peptide 48 (well H6); IgG 2 ug/mL
[4] = biological target: HCV Core Peptide # 52 (aa 103-117) (hepatitis C virus); experiment: EIA on coated peptide 52 (well D7); IgG 2 ug/mL
[5] = biological target: HCV Core Peptide # 51 (aa 101-115) (hepatitis C virus); experiment: EIA on coated peptide 51 (well C7); IgG 2 ug/mL
[6] = biological target: HCV Core Peptide # 49 (aa 97-111) (hepatitis C virus); experiment: peptide EIA summary (Table 11), peptide 49, aa 97-111
[7] = biological target: HCV Core Peptide # 53 (aa 105-119) (hepatitis C virus); experiment: EIA on coated peptide 53 (well E7); IgG 2 ug/mL
[8] = biological target: HCV Core Peptide # 49 (aa 97-111) (hepatitis C virus); experiment: EIA on coated peptide 49 (well A7); IgG 2 ug/mL
[9] = biological target: HCV Core Peptide # 53 (aa 105-119) (hepatitis C virus); experiment: peptide EIA summary (Table 11), peptide 53, aa 105-119
[10] = biological target: HCV Core Peptide # 50 (aa 99-113) (hepatitis C virus); experiment: EIA on coated peptide 50 (well B7); IgG 2 ug/mL
[11] = biological target: HCV Core Peptide # 52 (aa 103-117) (hepatitis C virus); experiment: peptide EIA summary (Table 11), peptide 52, aa 103-117
[12] = biological target: HCV Core Peptide # 55 (aa 109-123) (hepatitis C virus); experiment: peptide EIA summary (Table 11), peptide 55, aa 109-123
[13] = biological target: HCV Core Peptide # 54 (aa 107-121) (hepatitis C virus); experiment: EIA on coated peptide 54 (well F7); IgG 2 ug/mL
[14] = biological target: HCV Core Peptide # 54 (aa 107-121) (hepatitis C virus); experiment: peptide EIA summary (Table 11), peptide 54, aa 107-121
[15] = biological target: HCV Core Peptide # 55 (aa 109-123) (hepatitis C virus); experiment: EIA on coated peptide 55 (well G7); IgG 2 ug/mL
[16] = biological target: HCV Core Peptide # 51 (aa 101-115) (hepatitis C virus); experiment: peptide EIA summary (Table 11), peptide 51, aa 101-115
[17] = biological target: HCV Core1-169 recombinant antigen (hepatitis C virus (HCV-1)) (UniProt P26664); experiment: sandwich EIA, 25 ng/ml core1-169; capture mAb 208A-207-271
HCV Core1-169 recombinant antigen (hepatitis C virus (HCV-1)), sequence (P26664 1-169, tags left off): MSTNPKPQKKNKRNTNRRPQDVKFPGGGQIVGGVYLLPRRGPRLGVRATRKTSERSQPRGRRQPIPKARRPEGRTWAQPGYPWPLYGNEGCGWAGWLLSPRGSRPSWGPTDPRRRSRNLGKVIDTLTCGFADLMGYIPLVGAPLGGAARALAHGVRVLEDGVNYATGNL

[18] = biological target: HCV Core1-169 recombinant antigen (hepatitis C virus (HCV-1)) (UniProt P26664); experiment: sandwich EIA, 25 ng/ml core1-169; capture mAb 208B-1096
[19] = biological target: HCV Core1-169 recombinant antigen (hepatitis C virus (HCV-1)) (UniProt P26664); experiment: sandwich EIA, 25 ng/ml core1-169; capture mAb C11-9
[20] = biological target: HCV Core1-169 recombinant antigen (hepatitis C virus (HCV-1)) (UniProt P26664); experiment: sandwich EIA, 25 ng/ml core1-169; capture mAb 208A-692
[21] = biological target: HCV Core1-169 recombinant antigen (hepatitis C virus (HCV-1)) (UniProt P26664); experiment: sandwich EIA, 25 ng/ml core1-169; capture mAb 208A-110
[22] = biological target: HCV Core1-169 recombinant antigen (hepatitis C virus (HCV-1)) (UniProt P26664); experiment: sandwich EIA, 25 ng/ml core1-169; capture mAb C11-7
[23] = biological target: HCV Core1-169 recombinant antigen (hepatitis C virus (HCV-1)) (UniProt P26664); experiment: sandwich EIA, 25 ng/ml core1-169; capture mAb 208A-557
[24] = biological target: HCV Core1-169 recombinant antigen (hepatitis C virus (HCV-1)) (UniProt P26664); experiment: sandwich EIA, 25 ng/ml core1-169; capture mAb 208B-741
[25] = biological target: HCV Core1-169 recombinant antigen (hepatitis C virus (HCV-1)) (UniProt P26664); experiment: sandwich EIA, 25 ng/ml core1-169; capture mAb 208B-612-226
[26] = biological target: HCV Core1-169 recombinant antigen (hepatitis C virus (HCV-1)) (UniProt P26664); experiment: sandwich EIA, 25 ng/ml core1-169; capture mAb 208B-395-334
[27] = biological target: HCV Core1-169 recombinant antigen (hepatitis C virus (HCV-1)) (UniProt P26664); experiment: sandwich EIA, 25 ng/ml core1-169; capture mAb 208A-293
[28] = biological target: HCV Core1-169 recombinant antigen (hepatitis C virus (HCV-1)) (UniProt P26664); experiment: sandwich EIA, 25 ng/ml core1-169; capture NC capture mAb

Row | OD492 nm [17] | OD492 nm [18] | OD492 nm [19] | OD492 nm [20] | OD492 nm [21] | OD492 nm [22] | OD492 nm [23] | OD492 nm [24] | OD492 nm [25] | OD492 nm [26] | OD492 nm [27] | OD492 nm [28] | Substance | also measured
1 |  |  |  |  |  |  |  |  |  |  |  |  | C11-3 (ABT-4) monoclonal antibody | OD (A492 nm) [1]: 0.95 OD (A492 nm); OD (A492 nm) [2]: 1.03 OD (A492 nm); OD (A492 nm) [3]: 0.81 OD; OD (A492 nm) [4]: 0.96 OD; OD (A492 nm) [5]: 1 OD; OD (A492 nm) [6]: 1.03 OD (A492 nm); OD (A492 nm) [7]: 0.36 OD; OD (A492 nm) [8]: 0.97 OD; OD (A492 nm) [9]: 0.36 OD (A492 nm); OD (A492 nm) [10]: 0.97 OD; OD (A492 nm) [11]: 1.01 OD (A492 nm); OD (A492 nm) [12]: 0.08 OD (A492 nm); OD (A492 nm) [13]: 0.08 OD; OD (A492 nm) [14]: 0.08 OD (A492 nm); OD (A492 nm) [15]: 0.06 OD; OD (A492 nm) [16]: 1.01 OD (A492 nm)
2 | 0.22 OD492 | 0.45 OD492 | 1.04 OD492 | 0.18 OD492 | 1.78 OD492 | 0.23 OD492 | 0.64 OD492 | 1.76 OD492 | 0.53 OD492 | 0.46 OD492 | 1.55 OD492 | 0.22 OD492 | anti-HCV Core C11-7 monoclonal antibody | 
3 | 0.44 OD492 | 0.82 OD492 | 2.75 OD492 | 0.58 OD492 | 2.59 OD492 | 1.91 OD492 | 1.18 OD492 | 2.32 OD492 | 0.63 OD492 | 0.95 OD492 | 1.84 OD492 | 0.62 OD492 | anti-HCV Core C11-9 monoclonal antibody | 
4 | 0.17 OD492 | 0.21 OD492 | 0.14 OD492 | 0.15 OD492 | 0.16 OD492 | 0.17 OD492 | 0.18 OD492 | 0.18 OD492 | 0.22 OD492 | 0.22 OD492 | 0.23 OD492 | 0.18 OD492 | negative control (NC) monoclonal antibody | 
